Target: T1, N-terminal autoproteolysis product of the crystallized HormR-GAIN fragment of rat CL1 (CIRL/Latrophilin 1) (rat, UniProt O88917 460-837)
T1 sequence (looked up): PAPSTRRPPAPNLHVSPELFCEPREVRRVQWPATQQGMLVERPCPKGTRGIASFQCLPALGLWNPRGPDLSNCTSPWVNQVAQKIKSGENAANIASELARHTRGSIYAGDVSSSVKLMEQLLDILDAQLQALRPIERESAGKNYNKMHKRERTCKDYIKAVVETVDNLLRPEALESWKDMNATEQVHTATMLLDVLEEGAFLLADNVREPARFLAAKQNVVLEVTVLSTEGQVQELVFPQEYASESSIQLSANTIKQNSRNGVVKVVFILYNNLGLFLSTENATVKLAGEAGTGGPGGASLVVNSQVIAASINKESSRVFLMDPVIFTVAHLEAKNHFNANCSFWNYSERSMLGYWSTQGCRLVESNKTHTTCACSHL
Experiment: crystal structure

Does TNFAVLMAHREI (peptide, UniProt O88917 838-849, looked up) bind?
Result: binds

— paper PMC3321182 (The EMBO Journal, 2012)
